Values of other authors, collected in patent publication US20100069292A1, “INSULIN WITH A BASAL RELEASE PROFILE” (Biodel, Inc., priority 2008, published 2010).

What was measured:
[1] = patients, compared with NPH insulin
[2] = in vivo

For insulin glargine, the “risk of low blood glucose (hypoglycemia)” value [1] is given as “much lower risk of low blood glucose (hypoglycemia) than the patients who took NPH insulin” and the “duration of blood glucose lowering after injection” value [2] is given as “up to 24 hours”.
